For this experiment, the target named is PR-3 receptor (proteinase 3) on TNF-primed human peripheral blood neutrophils (human) (UniProt P24158). Put plainly: cell-based or functional assay.

In patent publication US20160228520A1 one finds % Release of calcein from HUVEC, α-PR3 mAbs added, negative control (0.25 mg/mL α1 antichymotrypsin by the text) and Mean fluorescence, HUVEC assay, α-PR3 mAbs added, negative control data, which are given here for one substance.

Chain of UniProt P24158 (P24158 28-248): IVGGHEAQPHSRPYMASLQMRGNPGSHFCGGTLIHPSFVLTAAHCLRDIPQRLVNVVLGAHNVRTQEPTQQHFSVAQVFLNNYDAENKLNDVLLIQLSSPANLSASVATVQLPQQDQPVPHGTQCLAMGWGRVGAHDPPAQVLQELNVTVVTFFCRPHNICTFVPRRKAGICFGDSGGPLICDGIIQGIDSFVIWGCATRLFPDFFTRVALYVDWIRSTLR

With “α1-antichymotrypsin (Athens Research & Technology, Cat. No. 16-16-012400) (from UniProt P01011 24-423)”, the % Release of calcein from HUVEC, α-PR3 mAbs added, negative control (0.25 mg/mL α1 antichymotrypsin by the text) is 21.9% and the Mean fluorescence, HUVEC assay, α-PR3 mAbs added, negative control was determined as 4420.
